For assay [1], the target named is hTAS1R1/rTAS1R3 umami taste receptor (wild type) (human | rat) (UniProt Q7RTX1).
Assay [2] deals with hTAS1R2/hTAS1R3 sweet taste receptor (human) (UniProt Q8TE23).
The target in assay [3] is hTAS1R2/rTAS1R3 sweet taste receptor (human | rat) (UniProt Q8TE23).
In assay [4] the target is hTAS1R1 subunit expressed alone (human) (UniProt Q7RTX1).
Assay [5] has as its target hTAS1R1(H71A)/rTAS1R3 (human | rat) (UniProt Q7RTX1).
For assay [6], the target named is hTAS1R1(L223A)/rTAS1R3 (human | rat) (UniProt Q7RTX1).
The target of assay [7] is hTAS1R1(D192A)/rTAS1R3 (human | rat) (UniProt Q7RTX1).
Assay [8] has as its target hTAS1R1(R277A)/rTAS1R3 (human | rat) (UniProt Q7RTX1).
Assay [9] deals with hTAS1R1/rTAS1R3 umami taste receptor (wild type) (human | rat) (UniProt Q7RTX1). This is another data set of the same source.
The target in assay [10] is hTAS1R1(H71L)/rTAS1R3 (human | rat) (UniProt Q7RTX1).
Assay [11] has as its target hTAS1R1(R151A)/rTAS1R3 (human | rat) (UniProt Q7RTX1).
Assay [12] concerns the target hTAS1R1(Q278Y)/rTAS1R3 (human | rat) (UniProt Q7RTX1).
For assay [13], the target named is hTAS1R1(H308A)/rTAS1R3 (human | rat) (UniProt Q7RTX1).
Assay [14] has as its target hTAS1R1(A302W)/rTAS1R3 (human | rat) (UniProt Q7RTX1).
Assay [15] concerns the target hTAS1R1(Q278A)/rTAS1R3 (human | rat) (UniProt Q7RTX1).
For assay [16], the target named is hTAS1R1(A170W)/rTAS1R3 (human | rat) (UniProt Q7RTX1).
For assay [17], the target named is hTAS1R1(Q278K)/rTAS1R3 (human | rat) (UniProt Q7RTX1).
The target in assay [18] is T1, hTAS1R1/rTAS1R3 (UniProt Q7RTX1+Q923K1).
T1 construct: UniProtKB number Q7RTX1–1); The cDNA coding region of rTAS1R3 was synthesized with optimized-codon usage for human expression; expressed in transfected cells; host or cells: HEK293T/17 (ATCC CRL-11268)
T1 sequence (Q7RTX1 21-841): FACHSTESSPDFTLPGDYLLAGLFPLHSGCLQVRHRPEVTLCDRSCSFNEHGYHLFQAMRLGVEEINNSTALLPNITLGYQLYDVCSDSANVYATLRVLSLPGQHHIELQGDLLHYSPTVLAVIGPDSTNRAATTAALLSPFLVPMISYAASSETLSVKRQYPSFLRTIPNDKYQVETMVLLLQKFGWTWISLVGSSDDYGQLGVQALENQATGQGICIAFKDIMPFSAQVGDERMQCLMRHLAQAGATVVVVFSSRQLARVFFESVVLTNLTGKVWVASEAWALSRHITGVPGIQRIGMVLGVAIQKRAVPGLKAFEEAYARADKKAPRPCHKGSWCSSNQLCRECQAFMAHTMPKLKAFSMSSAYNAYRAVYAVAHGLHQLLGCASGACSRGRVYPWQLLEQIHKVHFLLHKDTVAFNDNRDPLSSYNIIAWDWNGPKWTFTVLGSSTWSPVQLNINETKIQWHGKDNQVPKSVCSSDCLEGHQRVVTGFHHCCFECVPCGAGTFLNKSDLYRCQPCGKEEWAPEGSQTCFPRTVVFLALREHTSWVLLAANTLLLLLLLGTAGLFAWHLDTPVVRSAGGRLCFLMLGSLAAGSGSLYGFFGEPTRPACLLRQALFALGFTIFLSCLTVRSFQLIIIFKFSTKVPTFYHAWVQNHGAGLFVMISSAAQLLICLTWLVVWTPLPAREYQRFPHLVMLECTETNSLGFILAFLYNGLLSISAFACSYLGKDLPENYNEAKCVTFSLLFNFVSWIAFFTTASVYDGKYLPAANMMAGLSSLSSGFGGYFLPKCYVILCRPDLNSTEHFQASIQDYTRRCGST
T1 sequence (Q923K1 21-858): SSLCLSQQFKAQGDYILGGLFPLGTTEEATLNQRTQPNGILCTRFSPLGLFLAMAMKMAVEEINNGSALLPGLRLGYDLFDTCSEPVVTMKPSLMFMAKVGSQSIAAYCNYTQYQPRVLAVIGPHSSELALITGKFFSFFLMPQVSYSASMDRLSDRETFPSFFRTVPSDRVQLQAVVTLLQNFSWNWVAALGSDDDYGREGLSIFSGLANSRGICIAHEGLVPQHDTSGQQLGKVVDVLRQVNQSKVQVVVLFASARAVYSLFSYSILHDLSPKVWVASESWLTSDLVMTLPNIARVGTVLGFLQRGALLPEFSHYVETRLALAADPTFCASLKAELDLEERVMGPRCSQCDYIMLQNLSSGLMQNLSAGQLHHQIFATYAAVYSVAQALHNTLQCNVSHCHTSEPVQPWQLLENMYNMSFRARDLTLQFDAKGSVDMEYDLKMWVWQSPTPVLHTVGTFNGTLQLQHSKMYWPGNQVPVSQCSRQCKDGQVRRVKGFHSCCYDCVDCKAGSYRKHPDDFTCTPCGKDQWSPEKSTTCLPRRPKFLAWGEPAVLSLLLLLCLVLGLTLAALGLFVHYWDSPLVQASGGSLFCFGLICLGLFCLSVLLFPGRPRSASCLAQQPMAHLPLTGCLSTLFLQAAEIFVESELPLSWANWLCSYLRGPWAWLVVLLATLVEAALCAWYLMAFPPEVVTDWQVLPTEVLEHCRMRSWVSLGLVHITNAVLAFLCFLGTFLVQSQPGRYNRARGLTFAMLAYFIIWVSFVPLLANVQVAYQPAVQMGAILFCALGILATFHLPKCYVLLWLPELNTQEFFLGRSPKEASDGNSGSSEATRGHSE
The assay is described as follows: Calcium assay (GCaMP6s, Gα15i2) in transiently transfected HEK293T/17 cells. The format is cell-based, human, rat. How it is done: To this end, hTAS1R1/rTAS1R3 and the chimeric G protein Gα15i2 were transiently expressed in HEK293T cells. Cellular responses were assessed via calcium imaging using a fluorescent protein calcium biosensor (GCaMP6s) and compared with those of mock-transfected cells.

For assay [19], the system named is umami perception. The conditions noted are these: ref Shigemura et al., 2009, cited from earlier work.

Like-named read-outs stand apart in the source and are kept apart here.

Here are results for 5 compounds from PMC12615753, “Glutathione as a taste modulator: molecular mechanisms of interaction with umami and sweet taste receptors” (Food Chemistry: Molecular Sciences, 2025).

Sequence of hTAS1R2/rTAS1R3 sweet taste receptor (human | rat) (Q8TE23 20-839): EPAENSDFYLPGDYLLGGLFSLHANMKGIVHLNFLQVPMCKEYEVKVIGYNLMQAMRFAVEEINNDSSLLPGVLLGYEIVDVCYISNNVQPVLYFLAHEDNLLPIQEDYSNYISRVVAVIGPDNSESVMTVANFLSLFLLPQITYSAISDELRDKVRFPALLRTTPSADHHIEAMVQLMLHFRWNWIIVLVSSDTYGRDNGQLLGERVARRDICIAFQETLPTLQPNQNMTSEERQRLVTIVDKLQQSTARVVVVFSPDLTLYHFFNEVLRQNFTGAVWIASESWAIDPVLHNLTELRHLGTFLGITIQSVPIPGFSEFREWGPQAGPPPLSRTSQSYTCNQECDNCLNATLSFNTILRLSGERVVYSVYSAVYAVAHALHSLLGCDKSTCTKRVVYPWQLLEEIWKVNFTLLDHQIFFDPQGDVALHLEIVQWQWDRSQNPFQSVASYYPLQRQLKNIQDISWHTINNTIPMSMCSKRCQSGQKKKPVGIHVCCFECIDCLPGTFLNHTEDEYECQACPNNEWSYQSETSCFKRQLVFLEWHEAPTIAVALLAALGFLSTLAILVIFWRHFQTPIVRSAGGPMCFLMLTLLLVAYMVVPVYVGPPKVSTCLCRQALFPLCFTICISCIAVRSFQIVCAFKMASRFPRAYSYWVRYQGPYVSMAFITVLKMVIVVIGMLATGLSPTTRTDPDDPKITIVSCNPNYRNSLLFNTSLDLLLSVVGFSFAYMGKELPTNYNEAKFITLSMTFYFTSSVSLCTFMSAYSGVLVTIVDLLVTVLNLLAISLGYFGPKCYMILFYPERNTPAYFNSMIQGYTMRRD
Sequence of hTAS1R2/hTAS1R3 sweet taste receptor (human) (Q8TE23 20-839, chain 1 of 2): as the sequence (Q8TE23 20-839) above
Sequence of hTAS1R2/hTAS1R3 sweet taste receptor (human) (Q7RTX0 21-852, chain 2 of 2, further chain): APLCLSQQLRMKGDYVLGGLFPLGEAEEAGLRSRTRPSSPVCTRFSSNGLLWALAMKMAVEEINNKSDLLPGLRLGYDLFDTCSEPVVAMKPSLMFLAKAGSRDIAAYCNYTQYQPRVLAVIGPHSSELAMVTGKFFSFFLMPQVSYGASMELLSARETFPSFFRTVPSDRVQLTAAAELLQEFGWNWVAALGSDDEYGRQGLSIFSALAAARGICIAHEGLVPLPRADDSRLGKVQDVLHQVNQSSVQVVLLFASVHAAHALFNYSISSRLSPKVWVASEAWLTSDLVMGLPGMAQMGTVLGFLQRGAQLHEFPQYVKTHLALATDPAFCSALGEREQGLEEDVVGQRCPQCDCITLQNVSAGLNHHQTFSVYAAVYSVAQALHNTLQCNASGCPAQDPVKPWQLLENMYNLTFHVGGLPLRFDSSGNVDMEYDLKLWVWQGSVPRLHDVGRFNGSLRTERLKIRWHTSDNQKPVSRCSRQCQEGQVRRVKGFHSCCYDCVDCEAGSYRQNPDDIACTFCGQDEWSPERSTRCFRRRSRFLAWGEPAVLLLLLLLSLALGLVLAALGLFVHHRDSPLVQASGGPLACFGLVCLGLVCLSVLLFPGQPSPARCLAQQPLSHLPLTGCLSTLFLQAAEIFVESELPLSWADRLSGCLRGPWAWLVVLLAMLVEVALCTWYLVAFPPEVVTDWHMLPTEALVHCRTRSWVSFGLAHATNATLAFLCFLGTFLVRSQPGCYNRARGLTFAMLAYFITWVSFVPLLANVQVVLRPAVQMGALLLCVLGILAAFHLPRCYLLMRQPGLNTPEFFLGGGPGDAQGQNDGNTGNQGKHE

Take “Reduced L-glutathione (γ-L-glutamyl-L-cysteinyl-glycine) (peptide)”: in [1], the EC50 of GSH, calcium response (GCaMP6s fluorescence) of transfected HEK293T cells worked out at 2.15 mM. For the same compound, the figures for the EC50 of GSH, calcium response of cells expressing the sweet taste receptor in assay [2] and in assay [3] were 0.591 mM and 4.06 mM, respectively. Besides, the EC50 of GSH in the presence of 0.1 μM S807, calcium response of HEK293 cells expressing hTAS1R1 alone in [4] is 0.281 mM. In addition, the EC50 of GSH, calcium response of transfected HEK293 cells is 2.03 mM in assay [5]; 2.32 mM in [6]; 3.25 mM in assay [7]; 1.84 mM in [8]; 2.27 mM in [10]; 2.59 mM in assay [11]. The EC50 of GSH, calcium response of transfected HEK293 cells in assay [12] is 3.96 mM; in assay [13], 3.25 mM; in [14] it was 5.32 mM; in assay [15], 3.42 mM; in assay [16], 5.29 mM; in assay [17], 5.66 mM. For the same compound, in assay [9], the EC50 of GSH, calcium response of transfected HEK293 cells (mutant series) turned out to be 2.52 mM.

The EC50 is the concentration at which the effect is half-maximal. `N[C@@H](CCC(=O)N[C@@H](CS)C(=O)O)C(=O)O` [Glu-Cys, γ-L-Glutamyl-L-cysteine]: in [18] (agonist alone, Fig. 1, Fig. S2), the EC50 is 3.2 ± 1.54 mM and the “max ∆F/F0” value was 0.42 ± 0.07.

As for `Nc1nc2c(ncn2[C@@H]2O[C@H](COP(=O)(O)O)[C@@H](O)[C@H]2O)c(=O)[nH]1` [GMP, guanosine 5′-monophosphate, reference compound], the “effect of the added 5′-ribonucleotide on the response to GSH” value in assay [18] (Fig. 6C–D) is given as “did not significantly increase”. In addition, the “activation of the receptor” value in assay [18] (compound alone) is “did not activate”.

For the compound `N[C@@H](CCC(=O)O)C(=O)[O-].[Na+]` [MSG, monosodium glutamate], the sensory recognition threshold is reported as 7.66 mM in [19] (MSG alone) and 0.20 mM in assay [19] (in the presence of 0.05 mM IMP).

For the compound γ-L-Glutamyl-L-cysteine (peptide), the EC50 of Glu-Cys, calcium response (GCaMP6s fluorescence) of transfected HEK293T cells in assay [1] was 3.2 mM.
